In the supplement of paper PMC9170038:

System: MS2 coat protein
Assay: apparent KD of MS2 coat protein; designed switch direction (-1 OFF switch, 1 ON switch): 1; higher = weaker reporter binding
Procedure, shortened: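 Transcription of designed RNA switches on Illumina chips was done by stalled E. coli RNA polymerase. SNAP-549-labelled MS2 coat protein was then titrated in doubling steps from 0.7 or 1.5 nM to 3 µM, with steps of 0.8–1.5 h at the lowest and 10–20 min at the highest concentration. The per-design median over clusters of curve-fitted normalised fluorescence is reported as apparent KD.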

[1] = input ligand: microRNA oligo, concentration not stated
[2] = Eterna round: R95, input ligand: FMN 200 uM
[3] = Eterna round: R95, input ligand: microRNA oligo, concentration not stated
[4] = Eterna round: R95, input ligand: none

Sequence | apparent KD of MS2 coat protein (input ligand: FMN 200 uM) [nM] | apparent KD of MS2 coat protein [1] [nM] | apparent KD of MS2 coat protein (input ligand: none) [nM] | apparent KD of MS2 coat protein [2] [nM] | apparent KD of MS2 coat protein [3] [nM] | apparent KD of MS2 coat protein [4] [nM]
UGUCCAGCCUGAGCUGGACAAAAGCAUGUACAUGAGGAUCACCCAUGUUCAUGUACAAGCUUUUUGCUCGUCUUACU [salish99_208a_r3_081] (Eterna round: R96, puzzle: Sensor for hsa-mir-208a) | 534 | 12.9 | 400 |  |  | 
UGUCCAGCCUGAGCUGGACAAAAGCAUGUACAUGAGGAUCACCCAUGUUCAUGUACAAGCUUUUUGCUCGUCUUACU [salish99_208a_r3_081] (puzzle: Sensor for hsa-mir-208a) |  |  |  | 360 | 14.1 | 471
UGUCCAGCCUGAGCUGGACAAAAGCAUGUACAUGAGGAUCACCCAUGUUCAUGUACAAGCUUUUUGCUCGUCUUAUG [salish99_208a_r3_052] (puzzle: Sensor for hsa-mir-208a) |  |  |  | 517 | 16.4 | 655
UGUCCAGCCUGUGCUGGUCUUUUGCAUGUACAUGAGGAUCACCCAUGUCGUGUACAUGCUUUUUGCUCGUCUUUAAA [Photon Torp-04] (puzzle: Sensor for hsa-mir-208a) |  |  |  | 181 | 25.4 | 317
UGUUAACAUGAGGAUCACCCAUGUCAAAUGAAGCGAGGAUAUGGAAAGUAAUAAGAUGAACUAGAAGGUGUAGUAG [Altered State 1-20 - Jieux - Same State 1] (puzzle: Same State 1) |  |  |  | 37.6 | 59.4 | 62
UGUUAACAUGAGGAUCACCCAUGUCAAAUGAAUCGAGGAUAUGGGAAGUAAGAAGAGAAACUAGAAGGCGAAGUUG [Altered State 1-3 - Jieux - Same State 1] (puzzle: Same State 1) |  |  |  | 97.2 | 72.9 | 226
UGUUAACAUGAGGAUCACCCAUGUCAAAUGAAUCGAGGAUAUGGGAAGUAAUAAGAUAAACCAGAAGGCGAAGUUG [Altered State 1-16 - Jieux - Same State 1] (puzzle: Same State 1) |  |  |  | 54.7 | 302 | 229
UGUUAGUAGACAGGAUAUUGAAUGUUAAGUAUUAACAUGAGGAUCACCCAUGUAUUUGAUUGGUACAAGAAGGGUCAUGUUUGU [JR_SSNG2_Sub014] (Eterna round: R96, puzzle: Same State NG 2) |  | 290 |  |  |  | 
UGUUGUAUUACAGGAUAUCUAGGAUUUUUAUUUAGAGAAGGGUAUUCACAUGAGGAUCACCCAUGUAUAUACGAGGAAGUUGUG [JMF's solution 31] (Eterna round: R96, puzzle: Same State NG 1) |  | 30.6 |  |  |  | 
UGUUGUAUUACAGGAUAUCUAGUAUUUUUACUUAGAGAAGGGUAUUCACAUGAGGAUCACCCAUGUAUAUACGAGGAAGUUGUG [JMF's solution 50] (Eterna round: R96, puzzle: Same State NG 1) |  | 22.9 |  |  |  | 
UGUUGUAUUACAGGAUAUCUAGUAUUUUUAGUUAGAGAAGGGUAUUCACAUGAGGAUCACCCAUGUAUAUACGAGGAAGUUGUG [JMF's solution 49] (Eterna round: R96, puzzle: Same State NG 1) | 43.7 | 36.9 | 45.7 |  |  | 
UGUUGUAUUACAGGAUAUCUAGUAUUUUUAUGUAGAGAAGGGUAUUCACAUGAGGAUCACCCAUGUAUAUACGAGGAAGUUGUG [JMF's solution 52] (Eterna round: R96, puzzle: Same State NG 1) |  | 28.9 |  |  |  | 
UGUUGUAUUACAGGAUAUCUAUGAUUUGUAUUUAGAGAAGGGUAUUCACAUGAGGAUCACCCAUGUAUAUACGAGGAAGUUGUG [JMF's solution 62] (Eterna round: R96, puzzle: Same State NG 1) | 67.5 | 48.5 | 62.3 |  |  | 
UGUUGUAUUACAGGAUAUCUAUUAGUUUAAUUUAGAGAAGGGUAUUCACAUGAGGAUCACCCAUGUAUAUACGAGGAAGUUGUG [JMF's solution 93] (Eterna round: R96, puzzle: Same State NG 1) |  | 39.5 |  |  |  | 
UGUUGUAUUACAGGAUAUCUAUUAGUUUUAGUUAGAGAAGGGUAUUCACAUGAGGAUCACCCAUGUAUAUACGAGGAAGUUGUG [JMF's solution 99] (Eterna round: R96, puzzle: Same State NG 1) |  | 34.6 |  |  |  | 
UGUUGUAUUACAGGAUAUCUAUUAGUUUUAUAUAGAGAAGGGUAUUCACAUGAGGAUCACCCAUGUAUAUACGAGGAAGUUGUG [JMF's solution 100] (Eterna round: R96, puzzle: Same State NG 1) |  | 36.8 |  |  |  | 
UGUUGUAUUACAGGAUAUCUAUUAGUUUUUUUUAGAGAAGGGUAUUCACAUGAGGAUCACCCAUGUAUAUACGAGGAAGUUGUG [JMF's solution 96] (Eterna round: R96, puzzle: Same State NG 1) |  | 36.8 |  |  |  | 
UGUUGUUAAUUAGGAUAUGGGCACAUGAGGAUCACCCAUGUAUUUUCGAUGCUAUGUGGAGACGUCUAGAAGGAAUGGCUAACA [SameState NG2 #89] (Eterna round: R96, puzzle: Same State NG 2) | 205 | 212 | 219 |  |  | 
UGUUGUUAAUUAGGAUAUGGUCACAUGAGGAUCACCCAUGUAAUGUCGAUGCUAUGUGGAUCUGAUCAGAAGGAAUGGCUAACA [SameState NG2 #96] (Eterna round: R96, puzzle: Same State NG 2) | 108 | 105 | 137 |  |  | 
UGUUGUUAAUUAGGAUAUGGUCACAUGAGGAUCACCCAUGUAAUGUCGAUGCUAUGUGGAUUUGAUCAGAAGGAAUGGUUAACA [SameState NG2 #98] (Eterna round: R96, puzzle: Same State NG 2) | 49.2 | 62.3 | 90.4 |  |  | 
UUAAAACAUGAGGAUCACCCAUGUAAUAAUAUGGGAGGAUAUCAGAUUUAAUUUAAUUUAUGAGAAGGCCUAAAUG [Mat - Same State 1 - Mod of Eli - D60] (puzzle: Same State 1) |  |  |  | 65.4 | 407 | 1150
UUAAAACAUGAGGAUCACCCAUGUCAACAAAGUCGAGGAUAUGGGCAAAUAAAAUAAGAACCAGAAGGCGAAUAAG [salish99_SS1_r3_005] (puzzle: Same State 1) |  |  |  | 36.9 | 221 | 314
UUAAAACAUGAGGAUCACCCAUGUCAUCUAAGUCGAGGAUAUGGGAAUUAAUUAAUUAAACCAGAAGGCGAAUAUU [Mat - Same State 1 - D90] (puzzle: Same State 1) |  |  |  | 38.6 | 439 | 543
UUAAAACAUGAGGAUCACCCAUGUCAUCUAAGUCGAGGAUAUGGGCAUAUAAUAUAAGAACCAGAAGGCGAAUAUU [Mat - Same State 1 - Mod of UCT - D26] (puzzle: Same State 1) |  |  |  | 113 | 37.7 | 58.4
UUAACAUGAGGAUCACCCAUGUAUAGGGAGUUAGCAAUUGGACAGGAUAUUGAAGAUGUAGAUAGCAAGAAGGGUCGGUAGUCU [JR_SSNG3_Sub002] (Eterna round: R96, puzzle: Same State NG 3) | 36.8 | 32.9 | 46.7 |  |  | 
UUAACAUGAGGAUCACCCAUGUAUAGGGAGUUUGCAAUUUGACAGGAUAUUGAAGAUGUAGAUAGCAAGAAGGGUCGGUAGUCU [JR_SSNG3_Sub004] (Eterna round: R96, puzzle: Same State NG 3) | 46.1 | 32.4 | 43.9 |  |  | 
UUAAGCAACGGGCAGGAUAUGUAUUAAAAUACAUGAGGAUCACCCAUGUGCAGGUGUAACACCUGACAGAAGGGCCAAUCGCUGC [Soteed - 7] (puzzle: Same State 2) |  |  |  | 63.8 | 531 | 900
UUAAGCAACGGGCAGGAUAUGUAUUAAAAUACAUGAGGAUCACCCAUGUGCAGGUGUAACACCUGACAGAAGGGCCAAUCGGUGC [Soteed - 8] (puzzle: Same State 2) |  |  |  | 39.5 | 256 | 409
UUAAUAAUGAUAGGAUAUACAUGAGGAAUUCUCGUAGAAGGAUCAUGACAUGAGGAUCACCCAUGUAACGCUCAGAAGAGCGUA [Mat - Same State NG 1 - JL mod - D37] (Eterna round: R96, puzzle: Same State NG 1) | 493 | 184 | 730 |  |  | 
